The supplement of paper PMC7877785
± gives the uncertainty stated by the source.

Experiment: self-splicing fitness, log relative to wild type (ln ratio); higher = more splicing; Tetrahymena group I intron in knt gene, E. coli kanamycin selection, DiMSum; sequences stand for … in CUCUCU…GGAGGGAAAAGUUAUCAGGCAUGCACCUGGUAGCUAGUCUUUAAACCAAUAGAUUGCAUCGGUUUAAAAGGCAAGACCGUCAAAUUGCGGGAAAGGGGUCAACAGCCGUUCAGUACCAAGUCUCAGGGGAAACUUUGAGAUGGCCUUGCAAAGGGUAUGGUAAUAAGCUGACGGACAUGGUCCUAACCACGCAGCCAAGUCCUAAGUCAACAGAUCUUCUGUUGAUAUGGAUGCAGUUCACAGACUAAAUGUCGGUCGGGGAAGAUGUAUUCUUCUCAUAAGAUAUAGUCGGACCUCUCCUUAAUGGGAGCUAGCGGAUGAAGUGAUGCAACACUGGAGCCGCUGGGAACUAAUUUGUAUGCGAAAGUAUAUUGAUUAGUUUUGGAGUACUCGUGGUCG
Method in brief: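 Pooled colonies went to amplicon sequencing on an Illumina HiSeq 2500 after six replicate transformations. The plates were LB agar with 100 μg/mL carbenicillin, 50 μM IPTG and 0.2% rhamnose, with or without 25 μg/mL kanamycin, incubated overnight at 37°C or 30°C. The E. coli BL21(DE3) library had all eight P1ex-region intron nucleotides randomised, the intron placed in the knt kanamycin-resistance gene on pET-22b(+). DiMSum fitness is the error-weighted combination of replicate fold changes, kanamycin against none, normalised to wild type.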

Sequence | self-splicing fitness (ln) (30 °C) | self-splicing fitness (ln) (37 °C)
CUUCAGCAAUAUUACGUACG | -0.327 ± 0.062 | 0.542 ± 0.088
CUUCAGCAAUAUUACGUAGA | -3.3 ± 0.19 | -2.92 ± 0.27
CUUCAGCAAUAUUACGUAGC | -3.62 ± 0.16 | -2.95 ± 0.25
CUUCAGCAAUAUUACGUCAA | -1.25 ± 0.34 | –
CUUGAGCAAUAUUACGAAAU | -2.7 ± 0.2 | -3.68 ± 0.46
CUUGAGCAAUAUUACGACCA | -1.41 ± 0.32 | –
CUUGAGCAAUAUUACGAGAA | -2.73 ± 0.4 | –
CUUGAGCAAUAUUACGAUAU | – | -1.76 ± 0.39
CUUGAGCAAUAUUACGAUCG | -1.2 ± 0.16 | -0.798 ± 0.23
CUUGAGCAAUAUUACGAUUA | -3.25 ± 0.26 | -2.36 ± 0.35
CUUGAGCAAUAUUACGAUUU | – | -2.09 ± 0.39
CUUGAGCAAUAUUACGCAGA | -1.11 ± 0.26 | -1.91 ± 0.3
CUUGAGCAAUAUUACGCCCU | – | -2.21 ± 0.46
CUUGAGCAAUAUUACGCCUG | – | -1.13 ± 0.36
CUUGAGCAAUAUUACGCUAC | -2.82 ± 0.49 | -2.02 ± 0.45
CUUGAGCAAUAUUACGCUUC | -2.91 ± 0.28 | -1.96 ± 0.45
CUUGAGCAAUAUUACGCUUU | -2.88 ± 0.32 | -3.35 ± 0.31
CUUGAGCAAUAUUACGGAAC | -2.25 ± 0.2 | -2.61 ± 0.33
CUUGAGCAAUAUUACGGACG | -0.339 ± 0.15 | 0.256 ± 0.26
CUUGAGCAAUAUUACGGCCG | – | -0.18 ± 0.27
CUUGAGCAAUAUUACGGCGU | -3.95 ± 0.34 | -2.76 ± 0.26
CUUGAGCAAUAUUACGGGGG | -2.81 ± 0.2 | -3.25 ± 0.39
CUUGAGCAAUAUUACGGUUC | -3.56 ± 0.35 | -2.51 ± 0.36
CUUGAGCAAUAUUACGUGAA | -3.07 ± 0.2 | -2.36 ± 0.3
CUUGAGCAAUAUUACGUGUC | -2.02 ± 0.22 | -2.28 ± 0.26

Sequence | self-splicing fitness (ln) (30 °C) | self-splicing fitness (ln) (37 °C)
CUUUAGCAAUAUUACGAAUU | – | -3.6 ± 0.46
CUUUAGCAAUAUUACGACAG | -0.431 ± 0.071 | -0.339 ± 0.097
CUUUAGCAAUAUUACGACGG | -0.354 ± 0.13 | -0.827 ± 0.16
CUUUAGCAAUAUUACGAGAC | -1.83 ± 0.36 | -2.9 ± 0.4
CUUUAGCAAUAUUACGAGGU | -3.4 ± 0.23 | -2.3 ± 0.27
CUUUAGCAAUAUUACGAUAG | -0.991 ± 0.11 | -0.782 ± 0.14
CUUUAGCAAUAUUACGAUUG | -0.504 ± 0.12 | 0.118 ± 0.17
CUUUAGCAAUAUUACGCAUU | -4.72 ± 0.31 | -3.51 ± 0.23
CUUUAGCAAUAUUACGCCAG | -1.65 ± 0.28 | -0.616 ± 0.28
CUUUAGCAAUAUUACGCGGC | -2.41 ± 0.35 | -0.897 ± 0.17
CUUUAGCAAUAUUACGGAUU | – | -1.57 ± 0.41
CUUUAGCAAUAUUACGGGAC | -3.25 ± 0.36 | -2.36 ± 0.42
CUUUAGCAAUAUUACGGUAA | -2.37 ± 0.23 | -2.12 ± 0.26
CUUUAGCAAUAUUACGGUAG | -1.81 ± 0.085 | -0.685 ± 0.11
CUUUAGCAAUAUUACGUACC | – | -1.68 ± 0.3
CUUUAGCAAUAUUACGUAGG | -1.05 ± 0.094 | -0.65 ± 0.13
CUUUAGCAAUAUUACGUAUC | -3.56 ± 0.35 | -3.21 ± 0.4
CUUUAGCAAUAUUACGUAUG | -0.82 ± 0.11 | -0.4 ± 0.12
GAAAAGCAAUAUUACGAAAC | -2.88 ± 0.14 | -0.0376 ± 0.11
GAAAAGCAAUAUUACGACGC | -0.132 ± 0.069 | 0.493 ± 0.093
GAAAAGCAAUAUUACGACUG | -0.58 ± 0.094 | -0.857 ± 0.1
GAAAAGCAAUAUUACGACUU | -0.183 ± 0.063 | 0.52 ± 0.096
GAAAAGCAAUAUUACGAGAC | -2.59 ± 0.29 | -0.985 ± 0.16
GAAAAGCAAUAUUACGAUAG | -3.28 ± 0.15 | -1.69 ± 0.15
GAAAAGCAAUAUUACGAUCU | -0.472 ± 0.075 | -0.478 ± 0.085

Sequence | self-splicing fitness (ln) (30 °C) | self-splicing fitness (ln) (37 °C)
GAAAAGCAAUAUUACGCAGC | -2.9 ± 0.17 | -1.74 ± 0.19
GAAAAGCAAUAUUACGCCUG | -0.929 ± 0.081 | -0.273 ± 0.11
GAAAAGCAAUAUUACGCGGC | -3.33 ± 0.19 | -3.07 ± 0.26
GAAAAGCAAUAUUACGCGGU | -3.4 ± 0.21 | -1.21 ± 0.16
GAAAAGCAAUAUUACGCUCU | -2.07 ± 0.13 | -1.27 ± 0.13
GAAAAGCAAUAUUACGGAAG | -3.88 ± 0.31 | -1.32 ± 0.16
GAAAAGCAAUAUUACGGACA | -0.576 ± 0.056 | -0.269 ± 0.064
GAAAAGCAAUAUUACGGACG | -1.05 ± 0.092 | -0.401 ± 0.1
GAAAAGCAAUAUUACGGAGU | -3.18 ± 0.15 | -2.11 ± 0.15
GAAAAGCAAUAUUACGGCAA | -0.142 ± 0.1 | -0.719 ± 0.11
GAAAAGCAAUAUUACGGGUU | -1.27 ± 0.095 | -1.22 ± 0.12
GAAAAGCAAUAUUACGUCAC | -2.2 ± 0.19 | -1.64 ± 0.31
GAAAAGCAAUAUUACGUCUC | -1.3 ± 0.073 | -0.38 ± 0.092
GAAAAGCAAUAUUACGUGUG | -2.31 ± 0.062 | -1.06 ± 0.072
GAAAAGCAAUAUUACGUUUU | -3.8 ± 0.18 | -2.4 ± 0.13
GAACAGCAAUAUUACGAACC | -1.6 ± 0.12 | -0.809 ± 0.13
GAACAGCAAUAUUACGACAU | -0.575 ± 0.011 | -0.153 ± 0.032
GAACAGCAAUAUUACGACGA | -0.494 ± 0.085 | 0.265 ± 0.097
GAACAGCAAUAUUACGACUG | -1.45 ± 0.085 | 0.155 ± 0.1
GAACAGCAAUAUUACGAGAU | -3.55 ± 0.12 | -1.4 ± 0.09
GAACAGCAAUAUUACGAGUA | -2.87 ± 0.12 | -1.98 ± 0.1
GAACAGCAAUAUUACGCAUC | -2.79 ± 0.095 | -2.01 ± 0.12
GAACAGCAAUAUUACGGAGC | -1.93 ± 0.057 | -1.13 ± 0.083
GAACAGCAAUAUUACGGCGU | -0.302 ± 0.083 | 0.212 ± 0.097
GAACAGCAAUAUUACGGGAC | -2.66 ± 0.085 | -1.36 ± 0.085

Sequence | self-splicing fitness (ln) (30 °C) | self-splicing fitness (ln) (37 °C)
GAACAGCAAUAUUACGGGCA | -0.822 ± 0.096 | -0.223 ± 0.093
GAACAGCAAUAUUACGGGUA | -1.54 ± 0.07 | -1.32 ± 0.076
GAACAGCAAUAUUACGUAGU | -1.55 ± 0.06 | -0.106 ± 0.075
GAACAGCAAUAUUACGUCCG | -1.5 ± 0.13 | -0.784 ± 0.17
GAACAGCAAUAUUACGUCGG | -2.64 ± 0.16 | -1.85 ± 0.28
GAACAGCAAUAUUACGUCGU | -1.5 ± 0.065 | -0.479 ± 0.078
GAACAGCAAUAUUACGUUGC | -3.47 ± 0.19 | -3.4 ± 0.29
GAAGAGCAAUAUUACGAAAU | -3.79 ± 0.24 | -1.95 ± 0.23
GAAGAGCAAUAUUACGACUA | -2.15 ± 0.29 | -1.92 ± 0.24
GAAGAGCAAUAUUACGAUCC | -1.84 ± 0.39 | –
GAAGAGCAAUAUUACGCAGG | -1.89 ± 0.32 | –
GAAGAGCAAUAUUACGCCAC | -3.28 ± 0.41 | -2.48 ± 0.41
GAAGAGCAAUAUUACGCGAG | -2.82 ± 0.17 | -2.16 ± 0.23
GAAGAGCAAUAUUACGCGGU | -2.63 ± 0.14 | -2.55 ± 0.25
GAAGAGCAAUAUUACGCGUC | -2.98 ± 0.42 | -2.5 ± 0.48
GAAGAGCAAUAUUACGGACA | -1.14 ± 0.24 | 0.342 ± 0.24
GAAGAGCAAUAUUACGGCAC | -1.31 ± 0.12 | -0.934 ± 0.16
GAAGAGCAAUAUUACGUAAG | -3.39 ± 0.21 | -1.5 ± 0.16
GAAGAGCAAUAUUACGUACA | -3.17 ± 0.2 | -2.7 ± 0.18
GAAGAGCAAUAUUACGUAGG | -3.14 ± 0.33 | -1.99 ± 0.19
GAAGAGCAAUAUUACGUCUA | -1.86 ± 0.13 | -1.01 ± 0.13
GAAGAGCAAUAUUACGUGAG | -2.97 ± 0.19 | -1.11 ± 0.22
GAAGAGCAAUAUUACGUUUC | -2.8 ± 0.14 | -2.74 ± 0.22
GAAUAGCAAUAUUACGAGAU | -3.86 ± 0.23 | -1.22 ± 0.14
